Here are results for one protein from paper PMC5976436, “Structure of a TRPM2 channel in complex with Ca^2+ explains unique gating regulation” (eLife, 2018).

The series concerns the molecule itself. As to the kind of experiment: cryo-EM structure; purified nvTRPM2 in Buffer A (20 mM Tris-HCl pH 8.0, 150 mM NaCl, 0.06% digitonin, 1 mM DTT), 5 mg/ml, trace amounts of Ca2+, no ADPR; C4 symmetry.

B1: Nematostella vectensis TRPM2 channel (transient receptor potential melastatin 2) (natural protein, UniProt A7T1N0 1-1551, looked up)
chain: MGKDSFTPLYDGGDSSHVHLNKFGSNQLSQSKKSWIARNFSRRECIRFVPKSHDVSRCKCGRPRERHSQQALESGQGSEEWNVASCTTKHPTNAYGEIDFEGYGGQKRAPYLRMSHDTDANLVITLMLKRWNLEIPNLVISVTGGAKSFVLKPRLREMFRRGLIKAAKTTGAWIITGGTNTGVMKHVGEAVKEQQLMFGSDTQVNVIGIATWGIVDKQSDLISEKNGKYPALYSMEPTPGHQGAMLDPNHSHFFLVDDGTEGKYGVEIGMRSRIEEAIMKVKTDSRSEAGSIGVPVVLLVLEGGPNTVATMYELIKKKVPAVVIDGSGRAASVVGFAYNHTIKRNVDGQTINVIDPQYEDEVRAKVVEVFGAKGADKTYSMIKDVLEDEKMISVYSLDGEISQDIDLAILKALLKANRSSPVAQLNLALAWNRIDLAKSDIFTEEQQWTTETLSAAMLTALLDDKAEFAELFLQNGLSMREFLSLDILCKLYAEVPGNTTIKPLLQKEMGKRQVKTIDMDVVGEVIEELMGDMFESYYRKDGHYFGELASYAEGLVLKNRKSSKDLLANINRIDPLPTPYLDVFLWAVLCNRRELARVLWEAGREPMAAALMASRLLKRMASRAQEDNTITDISSDLYDHARLFEERAVGVLDECFNENETLSQTLLVRELDHYSRMTALELAVSAESQDFIAHTSCQVLLTRLWMGTMAMNTRWWKVLVCLYLPVLIFPIIYFVPDEQHERQAAEREHQKSLNQKSSKVKSHKEKNDAPVVPVYRSKEEKAVSNDEEARVGTENEEEDFQLEDYIPEIREDDSMEVIMRNKKLGFCDRIMHFYSAPFSKFVGNVVGYLAFIFLYAYVVLFNFPRFDPAKTLGGIHPTEIVLYFWVFTILIEEIRQLAAKPPKYIKDKVSVYFSDTWNFVDIFSLTVFIIAIILRFFTNSRIFTASRIILSLDIIFFIVRSLQIFSVNRLLGPKLVMIQKMMQDLAQFIIILAVFTIAYGIALHAVMFPSPGIYARNNTWVTITSVVQYPYWQMYGELFLDEIQGEKPKEFGEVDPDGRWLSPLLLAIYMVFTNILLLNLLIAIFNYTFERVQEDSDKVWKFQRYDLVQEYHSRPVFAPPLVLLGHILIFIRWVWRMCRCGHPPRGSTMKIGLSPAEMEQMDNWEFQAAEMYIHQQQQKNSGTLEERVRALGDRVDCINSQLNRVLDSMSGTRAHALTDGNGLEGGHDSEGRLARMEVELSSNSESLQKILALLQQQPPVKGQAAVPIQLTLLHYKARSSPYPGSTAKRFAVQDNMVDWQVPFPDYKPVNYTAPVVLANPVWADKDLMAMSPRPELPYNQMDHTCNVNRVSYNGTYVVKDGLPLNPMGRTGMQGRGLLGRFGPNHAADPVVTRWKRTSAGVMLQGGKKVLEFVAIQRKDNNQWAIPGGMVEPGQLVTQALKAEFGEEAMAKLNVSQEEKERIAKQIERLFQQGQEIYKGYVDDPRNTDNAWMETVAVNFHDDKGDLFGDITLQAGDDAAAVRWQRVSGNIPLYASHVSILEKVAKMRDAAF
modifications: two N-acetylglucosamines attached to N1017
notes: TRPM2 of Nematostella vectensis, full-length protein; synthesized gene; the C-terminal NUDT9H domain is residues 1271-1551; model holds residues 6-23, 41-51, 86-546, 573-755, 812-1136 and 1148-1210; the NUDT9H domain is present in the protein but not seen in the map; also called nvTRPM2; not shown: GFP, C-terminal, cleaved
The stoichiometry N is the number of molecules, sites or subunits per partner or assembly. Regarding B1, the “stoichiometry N” value was 4.
